What all share (format): cell-based
For test [1], the system named is γ-secretase cleavage of Notch. Put plainly: NICD immunoblotting after co-transfection of TRPC6 and Notch plasmids. The settings on record: immunoblotting 48 h after transfection, 1 ug TRPC6 and 1 ug Notch plasmids. How it is done:
Cells were passaged in 12-well plate till the density approached 80%. Each well was transfected with 1 ug of TRPC6 and 1 ug of Notch plasmids using Lipofectamine 2000. Immunoblotting was used to examine the expression of Notch protein 48 h later. Wherein, NICD (notch intracellular domain) is the intracellular fragment produced by γ-secretase cleavage of Notch ΔE-myc, reflecting the level of γ-secretase cleavage of Notch.
In general terms: Immunoblotting shows a protein as a band on a membrane.

Test [2] concerns γ-secretase cleavage of C99. Description: Aβ ELISA, COS7-C99 stable cells overexpressing TRPC6. The settings on record: Table 3, 1 ug plasmid, 48 h, empty vector = 1. How it is done:
(§1) Upon collecting the culture medium of the cells, Aβ40 and Aβ42 levels were quantified with sandwich ELISA kit, respectively (purchased from Invitrogen). The forebrain of the mouse was dissected and separated, and then homogenized with GuHCL. After that, total Aβ was determined by ELISA. For determining TBST(Tris-Buffered Saline and 1% TritonX100, 1% SDS, 1% DOC) soluble and insoluble Aβ, upon TBST homogenation and centrifugation of the forebrain of the mouse, the supernatant was determined for TBST soluble Aβ by ELISA, and the precipitate was determined for TBST insoluble Aβ by ELISA upon another GuHCL homogenate.
(§2) HEK293APP stable cell line was cultured in DMEM culture solution (containing 200 ng/ml G418) with 10% FBS. C0S7C99 cells were cultured in MEM/F12 culture solution (containing 0.4 ug/ml hygromycin B) with 5% FBS, 1% NEAA, and 200 mM Glutamax. All the transfection was conducted by using Lipofectamin 2000 (Invitrogen).
C0S7C99 cells overexpressing TRPC6 were obtained by cell-transfection through general method 9 (n=5). The cells were passaged in 12-well plate till the density approached 80%. Each well was transfected with 1 ug plasmid using Lipofectamine 2000, and the Aβ levels in the culture medium were determined with ELISA after 48 h.
A general note: ELISA stands for enzyme-linked immunosorbent assay.

Test [3] has as its system γ-secretase cleavage of C99. Put plainly: C99-GVP/UAS-luciferase reporter assay with TRPC6 plasmid. The settings on record: Table 3; luciferase activity, lysed 24 hours after transfection; empty vector = 1. The procedure:
HEK293APP were transfected with C99-GVP/UASLuciferase, CTRL or TRPC6 plasmids, and were lysed 24 hours later. The luciferase activities were determined using the Luciferase assay system (purchased from Promega). β-gal was co-transfected to normalize the transfection efficiency.
(In a reporter assay the amount or activity of a reporter protein is the signal.)

For test [4], the system named is Aβ levels in HEK293APP stable cells. Description: Aβ ELISA of culture medium, HEK293APP stable cells transfected with TRPC plasmids. The note with it: Table 1; HEK293APP stable cell, 1 ug plasmid, medium ELISA after 48 hr; empty vector = 1. How it is done: as §1, §2
HEK293 cells were inoculated to 60 mm dishes. When the density was close to 80%, 4 ug APP plasmid was transfected with Lipofectamine 2000. After 4 h, the culture medium was replaced and 400 ng/ml of G418 was added. Cells were passage 2 days later and G418 in the culture was maintained at 400 ng/ml. After 2-3 weeks, the cells not transected died gradually, and the survived cells were HEK293 cells expressing APP. Then, G418 was reduced to and maintained at 200 ng/ml.
TRPC6 or TRPC5 was overexpressed in HEK293APP stable cell lines respectively (Cells were passaged into 12-well plates till the densities were close to 80%. Each well was transfected with 1 ug plasmid using Lipofectamine 2000, and the Aβ levels in the medium were determined with ELISA after 48 hr).
Afterwards, HEK293APP stable cells were passaged in 12-well plate till the density approached 80%. Each well was transfected with lug plasmid using Lipofectamine 2000, and the Aβ levels in the culture medium were determined with ELISA after 48 h. The targeting fragment was primarily narrowed down to 437-507aa.
The […] of TRPC6 contains the first transmembrane regions(TM1), the first extracellular loop (Loop1), and the second transmembrane regions (TM2). To further narrow down the active domain, we constructed 3 variant plasmids, with TM2 region replacement by TM1 region (C6-mut1), reversal of TM2 sequence (C6-mut2) or point mutations within TM2 region(C6-mut3). Then HEK293APP stable cells were passaged in 12-well plate. When the density was close to 80%, every well was transfected with lug plasmid using Lipofectamine 2000, and the Aβ levels in the medium were determined with ELISA after 48 h. The active fragment was further narrowed down to 487-507aa.

We go through one molecule from US9790551B2, “Use of TRPC6 mRNA levels in peripheral blood cells for early detection/diagnosis of senile dementia” (Aging Wise Biotechnology, Inc., priority 2013, dated 2017).

B1: TRPC6: transient receptor potential canonical 6 protein, overexpressed from plasmid; SEQ ID NO.:5 (protein, listed as Mus musculus)
chain: MSQSPRFVTRRGGSLKAAPGAGTRRNESQDYLLMDELGDDGYPQLPLPPYGYYPSFRGNENRLTHRRQTILREKGRRLANRGPAYMFNDHSTSLSIEEERFLDAAEYGNIPVVRKMLEECHSLNVNCVDYMGQNALQLAVANEHLEITELLLKKENLSRVGDALLLAISKGYVRIVEAILNHPAFAEGKRLATSPSQSELQQDDFYAYDEDGTRFSHDVTPIILAAHCQEYEIVHTLLRKGARIERPHDYFCKCTECSQKQKHDSFSHSRSRINAYKGLASPAYLSLSSEDPVMTALELSNELAVLANIEKEFKNDYRKLSMQCKDFVVGLLDLCRNTEEVEAILNGDAETRQPGDFGRPNLSRLKLAIKYEVKKFVAHPNCQQQLLSIWYENLSGLRQQTMAVKFLVVLAVAIGLPFLALIYWCAPCSKMGKILRGPFMKFVAHAASFTIFLGLLVMNAADRFEGTKLLPNETSTDNARQLFRMKTSCFSWMEMLIISWVIGMIWAECKEIWTQGPKEYLFELWNMLDFGMLAIFAASFIARFMAFWHASKAQSIIDANDTLKDLTKVTLGDNVKYYNLARIKWDPTDPQIISEGLYAIAVVLSFSRIAYILPANESFGPLQISLGRTVKDIFKFMVIFIMVFVAFMIGMFNLYSYYIGAKQNEAFTTVEESFKTLFWAIFGLSEVKSVVINYNHKFIENIGYVLYGVYNVTMVIVLLNMLIAMINSSFQEIEDDADVEWKFARAKLWFSYFEEGRTLPVPFNLVPSPKSLLYLLLKFKKWMCELIQGQKQGFQEDAEMNKRNEEKKFGISGSHEDLSKFSLDKNQLAHNKQSSTRSSEDYHLNSFSNPPRQYQKIMKRLIKRYVLQAQIDKESDEVNEGELKEIKQDISSLRYELLEEKSQNTEDLAELIRKLGERLSLEPKLEESRR
Consider B1, for which the “NICD level (γ-secretase cleavage of NotchΔE-myc)” value in test [1] is recorded as “did not affect NICD level”. In test [2], the Aβ40 came to 0.5949 ± 0.06435 and the Aβ42 is given as 0.5805 ± 0.04428. The molecule further had a C99-GVP/UAS-Luciferase reporter system in test [3] of 0.4650 ± 0.02628. In addition, in test [4], the Aβ40 was determined as 0.6839 ± 0.07359 and the Aβ42 is 0.6734 ± 0.06994.
